Measured values: patent publication US20060018919A1
Ends that are not written are not given here.

These binders were tested against target rabbit anti-LOS antibody (assay: capture ELISA, phage on coated antibody; OD over irrelevant rabbit antibody).

Row | Binder | Fold rise of ELISA value [fold]
1 | NMMRFTELSTPSGGGS (peptide, not shown: large carriers) [phage clone 2-15] | 1510

These binders were tested against target rabbit anti-LOS antibody (assay: peptide ELISA, peptide coupled to NucleoLink strip, target antibody 0.4 ug/well).

Row | Binder | Binding reactivity (OD405)
2 | NMMRFTELSTPSGGGS (also: coupled via C-terminal carboxyl to NucleoLink strips) [synthetic peptide 4 … with C-terminal GGGS spacer] | 0.99
3 | NMMRFTSQPPNNGGGS (also: coupled via C-terminal carboxyl to NucleoLink strips) [synthetic peptide 1 … with C-terminal GGGS spacer] | 0.4
4 | TLAHHKKPWILRGGGS (also: coupled via C-terminal carboxyl to NucleoLink strips) [synthetic peptide 5 … (control peptide from an unrelated clone) with C-terminal GGGS spacer] | 0.33
5 | NMMNYIMDPRTHGGGS (also: coupled via C-terminal carboxyl to NucleoLink strips) [synthetic peptide 2 … with C-terminal GGGS spacer] | 2.52
6 | NMMKYISPPIFLGGGS (also: coupled via C-terminal carboxyl to NucleoLink strips) [synthetic peptide 3 … with C-terminal GGGS spacer] | 1.11
